Positions count from the first letter of the chain named. Numbers in names are those of the source. Where “and” joins values, the source holds several entries; their conditions need not be identical. Equal entries are not always repeated.
B1: E-S6 (monomeric full-length extracellular mouse E-selectin) (domain or fragment)
chain: WYYNASSELMTYDEASAYCQRDYTHLVAIQNKEEINYLNSNLKHSPSYYWIGIRKVNNVWIWVGTGKPLTEEAQNWAPGEPNNKQRNEDCVEIYIQRTKDSGMWNDERCNKKKLALCYTASCTNASCSGHGECIETINSYTCKCHPGFLGPNCEQAVTCKPQEHPDYGSLNCSHPFGPFSYNSSCSFGCKRGYLPSSMETTVRCTSSGEWSAPAPACHVVECEALTHPAHGIRKCSSNPGSYPWNTTCTFDCVEGYRRVGAQNLQCTSSGIWDNETPSCKAVTCDAIPQPQNGFVSCSHSTAGELAFKSSCNFTCEQSFTLQGPAQVECSAQGQWTPQIPVCKAVQCEALSAPQQGNMKCLPSASGPFQNGSSCEFSCEEGFELKGSRRLQCGPRGEWDSKKPTCSAVKCDDVPRPQNGVMECAHATTGEFTYKSSCAFQCNEGFSLHGSAQLECTSQGKWTQEVPSCQVVQCPSLDVPGKMNMSCSGTAVFGTVCEFTCPDDWTLNGSAVLTCGATGRWSGMPPTCEAPVSPTRP
B2: E-S2-A28H (E-S2 with the A28H mutation in the lectin domain) (domain or fragment)
chain: WYYNASSELMTYDEASAYCQRDYTHLVHIQNKEEINYLNSNLKHSPSYYWIGIRKVNNVWIWVGTGKPLTEEAQNWAPGEPNNKQRNEDCVEIYIQRTKDSGMWNDERCNKKKLALCYTASCTNASCSGHGECIETINSYTCKCHPGFLGPNCEQAVTCKPQEHPDYGSLNCSHPFGPFSYNSSCSFGCKRGYLPSSMETTVRCTSSGEWSAPAPACHVVECEALTHPAHGIRKCSSNPGSYPWNTTCTFDCVEGYRRVGAQNLQCTSSGIWDNETPSCKA
B3: E-S2 (truncated mouse E-selectin with only the first two SCR domains) (domain or fragment)
chain: B2 chain with H28A
B4: E-S0 (mouse E-selectin lectin and EGF domains, no SCR domains) (domain or fragment)
chain: WYYNASSELMTYDEASAYCQRDYTHLVAIQNKEEINYLNSNLKHSPSYYWIGIRKVNNVWIWVGTGKPLTEEAQNWAPGEPNNKQRNEDCVEIYIQRTKDSGMWNDERCNKKKLALCYTASCTNASCSGHGECIETINSYTCKCHPGFLGPNCEQ

Molecular target: T1, CD44/HCELL (hematopoietic cell E- and/or L-selectin ligand) (human (endogenous in KG1a), UniProt P16070-12 21-361)
Test: SPR

T1 sequence (P16070 other isoform, or with tags, fused parts or gaps): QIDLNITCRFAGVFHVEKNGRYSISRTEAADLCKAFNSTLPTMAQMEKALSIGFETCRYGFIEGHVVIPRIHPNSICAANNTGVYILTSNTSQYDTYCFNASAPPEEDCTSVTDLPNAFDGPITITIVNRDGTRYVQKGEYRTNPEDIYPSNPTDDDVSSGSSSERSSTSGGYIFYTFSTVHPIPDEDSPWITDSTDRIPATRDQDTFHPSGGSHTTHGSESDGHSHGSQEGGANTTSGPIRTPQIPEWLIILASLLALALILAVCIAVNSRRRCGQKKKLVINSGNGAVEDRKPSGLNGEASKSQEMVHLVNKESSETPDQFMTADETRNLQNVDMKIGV

| koff | Binder |
| --- | --- |
| 0.000225 s⁻¹ and 0.00014 s⁻¹ | B1 |
| 0.0002 s⁻¹ and 0.00011 s⁻¹ | B2 |
| 0.00016 s⁻¹ and 0.00014 s⁻¹ | B3 |
| 5e-05 s⁻¹ and 7e-05 s⁻¹ | B4 |

Molecular target: T1, CD44/HCELL (hematopoietic cell E- …)
Test: SPR
Remark: another data set of the same source

| Kd [nM] | Binder |
| --- | --- |
| 1700 | B1 |
| 1190 | B2 |
| 18700 | B4 |

Reference: article PMC7076219 (2020)
